In data set [1] the target is T1, Strep-RapZ (Escherichia coli (K-12?)) (UniProt P0A894).
T1 sequence: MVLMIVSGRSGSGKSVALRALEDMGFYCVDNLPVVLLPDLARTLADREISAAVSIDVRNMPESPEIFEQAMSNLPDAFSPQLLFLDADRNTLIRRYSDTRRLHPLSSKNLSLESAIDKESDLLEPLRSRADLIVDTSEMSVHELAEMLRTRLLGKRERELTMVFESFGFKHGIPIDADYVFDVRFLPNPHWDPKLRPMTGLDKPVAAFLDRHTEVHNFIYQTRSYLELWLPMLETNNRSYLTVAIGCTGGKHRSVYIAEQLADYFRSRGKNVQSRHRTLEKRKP
The data set is described as follows: EMSA. Particulars: 10 mM Tris-HCl pH 7.0, 100 mM KCl, 10 mM MgCl2, 1 ug yeast tRNA per 10 ul, 30 min at 30 C (competition 15 + 15 min); native 6% PAGE at 4 C. For orientation: In EMSA bound probe runs differently from free probe, usually more slowly.

Data set [2] addresses T1, Strep-RapZ (Escherichia coli (K-12?)). The data set can be described thus: competition. Particulars: 10 mM Tris-HCl pH 7.0, 100 mM KCl, 10 mM MgCl2, 1 ug yeast tRNA per 10 ul, 30 min at 30 C (competition 15 + 15 min); native 6% PAGE at 4 C.

In the case of “GGGAGAGUAGAUGCUCAUUCCAUCUCUUAUGUUCGCCUUAGUGCCUCAUAAACUCCGGAAUGACGCAGAGCCGUUUACGGUGCUUAUCGUCCACUGACAGAUGUCGCUUAUGCCUCAUCAGACACCAUGGACACAACGUUGAGUGAAGCACCCACUUGUUG [GlmZ* (processed GlmZ)]”, the binding result in data set [1] and in data set [2] was “binds” each time.

Turning to “GGGAGAGUAGAUGCUCAUUCCAUCUCUUAUGUUCGCCUUAGUGCCUCAUAAACUCCGGAAUGACGCAGAGCCGUUUACGGUGCUUAUCGUCCACUGACAGAUGUCGCUUAUGCCUCAUCAGACACCAUGGACACAACGUUGAGUGAAGCACCCACUUGUUGUCAUACAGACCUGUUUUAACGCCUGCUCCGUAAUAAGAGCAGGCGUUUUUUU [GlmZ full-length]”, the binding entry in data set [1] and in data set [2] was “binds” throughout.

Source of the values: publication PMC6602413.
